Measured values: the DeepSol protein solubility set

Experiment: soluble on expression in E. coli; label from the status in PepcDB or PDB records

## MIGKCTHVVDCRETMGMGEGGGIAQRGTFAQCGSEVLAVAMSPGRRHITKPVCEITFALREANIMTSTIVLNAGAGVPQDAPSAGAGSLFGLTPAEVEQMKRHKLLVVHLGGVKNHITYKARLILRNVDRPCIIICEYPVDFEDFAKIGVRTRAVMPDEPKTKGTIVDIVSGVIRGETCPQEKLDEIIRKVKLALGGALEHHHHHH
  soluble on expression in E. coli: not soluble

## MGSDKIHHHHHHMLAENLKSLYLDEWNRYVGHEFVRRMEHGDLPLENFKFYLVQDSLYVEEMLRAVMRSTELMPNDMAIRILSSVVLGRDKGMETHAFLEKELGVEKSSRMTMTTYSYTRHLRYSSTIGWPQFLAAWIPCMWGYSEIGKTVLNSPNRYYRTWAEFYASKEYADRVSVILEAMDRFNGDITEIKDYFLISLKFEQMFWQAAFDMEKPI
  soluble on expression in E. coli: not soluble

## MNDAVITLNGLEKRFPGMDKPAVAPLDCTIHAGYVTGLVGPDGAGKTTLMRMLAGLLKPDSGSATVIGFDPIKNDGALHAVLGYMPQKFGLYEDLTVMENLNLYADLRSVTGEARKQTFARLLEFTSLGPFTGRLAGKLSGGMKQKLGLACTLVGEPKVLLLDEPGVGVDPISRRELWQMVHELAGEGMLILWSTSYLDEAEQCRDVLLMNEGELLYQGEPKALTQTMAGRSFLMTSPHEGNRKLLQRALKLPQVSDGMIQGKSVRLILKKEATPDDIRHADGMPEININETTPRFEDAFIDLLGGAGTSESPLGAILHTVEGTPGETVIEAKELTKKFGDFAATDHVNFAVKRGEIFGLLGPNGAGKSTTFKMMCGLLVPTSGQALVLGMDLKESSGKARQHLGYMAQKFSLYGNLTVEQNLRFFSGVYGLRGRAQNEKISRMSEAFGLKSIASHATDELPLGFKQRLALACSLMHEPDILFLDEPTSGVDPLTRREFWLHINSMVEKGVTVMVTTHFMDEAEYCDRIGLVYRGKLIASGTPDDLKAQSANDEQPDPTMEQAFIQLIHDWDKEHSNE
  soluble on expression in E. coli: soluble

## MGSDKIHHHHHHMTKKKIGIGFGTWAWGNKLVWDYKAETDDILLKKTFFDAINGGLDLIDSADSYGTGSLFGQSEKLIGDFLEELPKRKLKKVTIATKLAPFPWRIGRNGLDNAFQESNQRLKGNMTRVQLHWSTYRYAPWQEEQLLNGLGDLYEEGLIKEIGLSNTGPKRLNFLFQKLKKRGIKIKSIQMQLSLLTKPSLEDENIKIICDENEIEYLAYSPLGLGILTVPPNQSPKPTTFLRKSLYQRILPKTIELRTLLTHIGKKYSASQAEVALNWVRSHGAKPIVGIRNPNQAKDAISALNWSLTKSEKQKLDFCRNACLANMPLNPFTSP
  soluble on expression in E. coli: not soluble

## MGSDKIHHHHHHLGGGGIRPSHLLADEGGGPPYRPPAGRPVPSVPALMKLNAIEAGSAAADRVPLLILHGLLGSARNWGAVVKALGESRRVLALDLPNHGSSPWTEIMDYPFMARELASVIEHLGGRAAIMGHSMGGKAAMTLALSRPELVERLVVVDIAPVSYSHTFAPYIKAMRGVPLGEVSSRGEVEAALAGAIPDKGVRAFLMQNLEGGAGGYRWRPNLAVLGAHMDDILAFPHFPDDTAFQGPTLFVAGETSDYIRPAHEDVIAQFFPKAESVEIPGAGHWVHADNPSAFMSAIGSFL
  soluble on expression in E. coli: not soluble

## MGSDKIHHHHHHMQNVIENFKQLCKIPHCSYETEQMKEFLSSYAKDKGFKVSVDKAGNIHAIKGKPKICLQSHYDMVCMGDAPNLEVYEENGFLRAKNSSLGADNGIGIAIMMSAMAEFENLECLFTNDEEVGLMGVNLLEHTLESKMLLNLDHESDDEIMIGCAGGVDIEASLSFNTLRKKGKIYELCAQNFKGGHSGINIIRNEKSSIKEMAKFIQENEGEIISFEGGERINSIPKHAKALVHFKDEVKSNNWIKCEFKEENEFEICDQSKKLLSLINSFTHGVRAYDENLDIVQTSINLATLRMQDNQIKFALFARSNILDGLKQVEFETLEFFKAFDFKIRSFNFYPPWEGKPNALSDMVFKALKKVSPNAKVSAIHAGLECGIIEKKQELLCASIGPNIHNPHSTDEHCEIASVEKISKVVFEVLKDNA
  soluble on expression in E. coli: not soluble

## MSLTDDLKVCNQTGVGEAINQIYKDDGRRCEGYESRDKKCLCISDNNTSLYAILSGHNGVTVAENALQEMAAELLLGQLNVCNTDEAVKELIRQSFMSVEKGYFDSINPHVATKTAIQLHLSADGMNQYEISQQFENVLQKLDSLNNALSVGSSAVLALIHRSHLYLGNIGNCRALLCKTDEHDTLTVTQLSVDHNLLNAEEAARLFRLGLMAQNFEGVPLYSTRCIGNYLGKAGYKDCNFLSSATAEPVIFEPEIVGGIQITPACRFLVLMSSGLCRALHEIFPGDASTGNRELVRMISEEFQNQSTLGGVAQSVVHRIVQAHHDTYMQLVEEHRSVTFNSRDDVTLLIRNFNYAEGHHHHHH
  soluble on expression in E. coli: not soluble

## MSMEFDAVIIGGGVSGCATFYTLSEYSSLKRVAIVEKCSKLAQISSSAKANSQTIHDGSIETNYTPEKAKKVRLSAYKTRQYALNKGLQNEVIFETQKMAIGVGDEECEFMKKRYESFKEIFVGLEEFDKQKIKELEPNVILGANGIDRHENIIGHGYRKDWSTMNFAKLSENFVEEALKLKPNNQVFLNFKVKKIEKRNDTYAVISEDAEEVYAKFVLVNAGSYALPLAQSMGYGLDLGCLPVAGSFYFVPDLLRGKVYTVQNPKLPFAAVHGDPDAVIKGKTRIGPTALTMPKLERNKCWLKGISLELLKMDLNKDVFKIAFDLMSDKEIRNYVFKNMVFELPIIGKRKFLKDAQKIIPSLSLEDLEYAHGFGEVRPQVLDRTKRKLELGEKKICTHKGITFNMTPSPGATSCLQNALVDSQEIAAYLGESFELERFYKDLSPEELENLEHHHHHH
  soluble on expression in E. coli: soluble

## MGSDKIHHHHHHMKFSLGPILYFWPKQQVFDFYQQAAESDVEHVYLGETVCSKRRELKLDDYLAIAHMLREAGKKVTLSTMTLLEAPAELRELGKYCDNGEFDVEANDVSAIGVLQEQGLNFTAGPGINIYNHQSLRRLIDMGMTRWVVPFELSRDWLQDVLQHNLIDTVRDCFDVEVFSFGHIPLAWSGRCFTARSENRPKDQCELCCIKYPEGREVKSQEGQQVFVLNGIQTQSGTRYNLINQLPGMNGLVDIVRISPQPEGTFDWLQRFRSNINGEHPVTLTSKENNGYWLQLAGLATG
  soluble on expression in E. coli: not soluble

## METKKQSESETYVERMVLPEDMDIYEYLYGGRLMEWIDNCASIVATKHCRKRTVTGSIDSLFFLLPIHLGDMVILHGYINYTTKSTMEIEIDVIKEEGLTGIRRYATKAYLTYVAIDSDGRPTEIPQIVPETDEEKRRYQDAEKRAEERRKRLESIKQQLASMVP
  soluble on expression in E. coli: not soluble

## MSLEAKECKVQDILTENKKFIIPSYQRPYSWTVDNAEQLIDDIYKSSQSEENEYFIGSMICINKGQNQYEVVDGQQRLTTLSIIVSELKKIIPIQGIKDDLQKRVLPIDVYSDETDEPRLIVRKKEYDLYKYYILQDSKDYKPEKPSDTELVFISNAETIRDYLLRLSVDELKLLAKYILQNVYIVFVQTDDFASSFRLFNVLNSRGLPLSNADLLKNALFESASTHNKKSEQIESAWSQIEDMVGVRRLDKFLTLHKLSEKKDRDRVLQKGFEAFIENLQQQFDGDAIAMSLMLVNSAKNYTKILENDFEHSSIRRKIASLSNLGVDEWIPPVMAFMNRMARTEDFNLDDFSQFITAFEKVYMHGWLKKQIKSQREMVCYSALVAINNDMSFDSVINQINQHADNSGFIAALDEDLYEPRPNQVNLIKAILLRLDMEQQDESVIKTYTGRITIEHILPQALVNEYWINRFQPQEHVYWLHKIGNLTLISGSKNSEAQHYDFIKKKSIYEKLNSKSSFDLTKDVCNSSEWGLAELKMRHEKMKTQLKKLWLVEGHHHHHH
  soluble on expression in E. coli: soluble

## MPTLRPESPEEVQEAVRAYPRLRAQGGGTKPALSTPKEGEVLLDLSRLRGLLAYEPEEFVFTAFAGTPIAEVEEALRAHGQYLPFDPPLAGKGATLGGTVAAGLSGPLRHRYGGLRDFLLGVRFVDGEGKVVRGGGKVVKNAAGFPFHRLMVGALGAFGVMVELSFKVFPRPRTTRTLRVRREGLEEALADLERLRLLPLDLLALDFIPPATLELRLGGFERSVEARLKRLQDLLGEGEVLAEDEAHWEAVRDLGFLEGSPVWVKVPAKPHLIPRLEALPLGPRRYLDGGEVLYAGTTEEGLKALREAGLPHLVLRGAEAPLFPEPQGAFFAGVKKALDPKGRFPLG
  soluble on expression in E. coli: soluble

## SFALEELPRIPDFTERAICELFELYASIESVQLPPQSSDATNSSSATAPGNIFSAERGPRYLGPRALVRFFTELGVDMRSLAALAFAWLGRWQYPCHCREEGFARGVRYALWALDRRQHNEPRRWEQVQATCSTLLETSIWPRESTALFERLRSAFPDAVLSYTQRSAEAALDFYLFAFDLNRQSPYRRSLSLTDARYLWKQFLSESCYLATPASPGTPAGVANQPWRYLEHFDAYLESRCGMAGTIISRDTWYWVLMFARETQVAGSSFFANYNQGDAWPVLLDGFVEYLRENKLLSS
  soluble on expression in E. coli: soluble

## MTAAADLILYNGDVHVLTDTATPADPAHSAVAIRDGRIVGLSNDYDAAFRADTGTREVDLGGRVVVPGFVDAHTHLAVLGKHGVHADLRGADSPAAATARLAERARETDAGWVLGFGYDDSQWSAALSTADLDAVSEARPVAAIREDMHTATVNGVALAEHGDEMPAADVGEDGRIVEDAVEAVYDATDPDLAGTRPLIEAAQREANERGVTAVHEMVRDSHAPRVYRELDAAGELSVRVRLNYWADHLDAVLETGLVTNHGGGMVTVGGIKTYTDGSLGGRTAKLSEPYADAPGETGQWVVDPSALAALVERADDAGLQVVAHAIGDAAVDAVLDAYEDAGERRHRIEHAELASDDAIERMADLGVVASVQPNFLKWAGSGGLYADRLGTARREASNRFADMLDAGVDVAFGSDCMPLAPLVGVHHAVTAPADAQRLSVTAALRAYTSGGARAGCREDEQGVIREGALADLTVLDASPWEHADAIADEVGVSMTVVDGAVVYDGRLEHHHHHH
  soluble on expression in E. coli: not soluble

## TELTLKPGTLTLAQLRAIHAAPVRLQLDASAAPAIDASVACVEQIIAEDRTAYGINTGFGLLASTRIASHDLENLQRSLVLSHAAGIGAPLDDDLVRLIMVLKINSLSRGFSGIRRKVIDALIALVNAEVYPHIPLKGSVGASGDLAPLAHMSLVLLGEGKARYKGQWLSATEALAVAGLEPLTLAAKEGLALLNGTQASTAYALRGLFYAEDLYAAAIACGGLSVEAVLGSRSPFDARIHEARGQRGQIDTAACFRDLLGDSSEVSLSHKNADKVQDPYSLRCQPQVMGACLTQLRQAAEVLGIEANAVSDNPLVFAAEGDVISGGNFHAEPVAMAADNLALAIAEIGSLSERRISLMMDKHMSQLPPFLVENGGVNSGFMIAQVTAAALASENKALSHPHSVDSLPTSANQEDHVSMAPAAGKRLWEMAENTRGVLAIEWLGACQGLDLRKGLKTSAKLEKARQALRSEVAHYDRDRFFAPDIEKAVELLAKGSLTGLLPAGVLPSL
  soluble on expression in E. coli: soluble

## MASTNCVSIQKRDILRGSGSTTWFDVLLEKGSCVTIVADDRPTVDIWLDRITHESPIAGREYCMRVDISGLKIATRCPTLGEAYLSEEHTEDYVCKRGFSDRGWGNGCGLFGKGSIVGCVKTTCKSSGIAKSYSYDIPKVKYVISTEVHKGELISGNVSASVVSATFSSEAEKHSMELEDYGRLEFTCRVVSGSNLGSVRILEIDNHYFNVHEDWLLDLPLPWRIPDGHWHDLGELIAFKEPHAVKMVAQAYGDQRASLLKSLVKAEEIAKSGNSYYLPGGHVDCRVSLVNLKLKGTTYPYCGDSFVWKRRPTATHHGTVAMEVTYQGTDVPCKVSVIVEKDGQNGGNAGSLITSNPIITAQGSSVFLELEVPLGFSTIKVGAAKQQWRQDGSSIGKALETHHHHHH
  soluble on expression in E. coli: not soluble

## MPVSSRRCGMITRREAERLCKSFLGDNTPPRLPDDFAFNVQHKCAWGCRGSFLPSRYNSSRAKCIKCSYCGMFFSPNKFIFHSHRITTNDRYVQPDAANFNSWRRHMSLSGNDYDEKIIHAWEDVKAMFNGGTRKRLVGSSINPRSPGSPTQSTAVSSGVGSSSCGSPTSFERDTNEVDGKSGSSLPQRSQIDSQYNYGTVAAAAAVVGVTAVAAATELCSGLHVAAEGPTLSAALRKKNPLEHHHHHH
  soluble on expression in E. coli: not soluble
